Laboratory results reported in patent US20250145729A1 (DENALI THERAPEUTICS, published 2025).

T1: human CD98hc (human, UniProt P08195 109-529)
T1 construct: also called huCD98hc; CD98 heavy chain
T1 sequence: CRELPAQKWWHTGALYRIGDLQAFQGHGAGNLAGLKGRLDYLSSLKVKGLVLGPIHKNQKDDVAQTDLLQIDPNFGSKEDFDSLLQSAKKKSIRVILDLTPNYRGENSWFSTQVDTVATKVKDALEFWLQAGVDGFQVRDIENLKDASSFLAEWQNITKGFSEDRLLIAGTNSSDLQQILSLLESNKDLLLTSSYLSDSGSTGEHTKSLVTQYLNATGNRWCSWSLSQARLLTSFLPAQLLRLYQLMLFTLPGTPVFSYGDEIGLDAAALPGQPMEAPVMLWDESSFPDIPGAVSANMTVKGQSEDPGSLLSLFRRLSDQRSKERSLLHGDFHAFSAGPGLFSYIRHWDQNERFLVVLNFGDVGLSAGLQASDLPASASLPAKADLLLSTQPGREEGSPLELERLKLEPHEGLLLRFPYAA

T2: circularly permuted human TfR apical domain (human)
T2 construct: TfR residues 326-379 stand N-terminal to 194-296, loop 297-325 deleted; also called huTfR Apical Domain
T2 chain: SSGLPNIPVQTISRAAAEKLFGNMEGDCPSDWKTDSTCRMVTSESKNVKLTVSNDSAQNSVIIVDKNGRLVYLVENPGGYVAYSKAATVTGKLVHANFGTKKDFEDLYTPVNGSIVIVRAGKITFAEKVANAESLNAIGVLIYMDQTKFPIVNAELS

T3: circularly permuted cyno TfR apical domain (cynomolgus monkey)
T3 construct: same design as the human construct; also called cyTfR Apical Domain; cynomolgus TfR apical domain
T3 chain: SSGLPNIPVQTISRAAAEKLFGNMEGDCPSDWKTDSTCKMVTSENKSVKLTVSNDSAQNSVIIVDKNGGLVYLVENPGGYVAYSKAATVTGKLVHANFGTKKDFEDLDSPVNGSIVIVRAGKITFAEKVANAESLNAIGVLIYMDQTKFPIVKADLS


Legend:
[1] = biological target: T1, human CD98hc; experiment: SPR (Biacore)
Summary of the method: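 Engineered Fc polypeptides, made as Fc-Fab fusions with anti-BACE1 Fabs, were assessed for Kd toward CD98hc. Measurements were taken by surface plasmon resonance with a Biacore instrument, in a bivalent format or in a monovalent knob/hole format whose CD98hc-binding site sat on the knob chain alone.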

[2] = biological target: T2, circularly permuted human TfR apical …; experiment: SPR, supernatant, anti-Fab capture
Method: (§1) Clones were expressed in HEK293 cells. Supernatants were captured for SPR by GE Healthcare anti-human Fab capture kit and the affinity to human and cyno TfR apical domain was measured (Table 30). The clones in Table 30 were bivalent and each TfR-binding Fc polypeptide also contained P329G and LALA mutations.

[3] = biological target: T3, circularly permuted cyno TfR apical …; experiment: SPR, supernatant, anti-Fab capture
Method: as §1

Binder | Kd [1] [nM] | Kd [2] [nM] | Kd [3] [nM]
LLB2-2 (Fc fusion, Fc part only) APELLGGPSVFLFPPKPKDTLMISRTPEVTCVVVDVSHEDPEVKFNWYVDGVEVHNAKTKPREEQYNSTYRVVSVLTVLHQDWLNGKEYKCKVSNKALPAPIEKTISKAKGQPREPQVYTLPPSRDELTKNQVSLTCLVKGFYPSDIAVIWNSRFSLENNYKTTPPVLDSDGSFFLYSKLTVDKSRWQQGNIFACNVLHEALHNHYTFKNLSLSPGK | 1300 | – | –
LLB2-3 (Fc fusion, Fc part only) APELLGGPSVFLFPPKPKDTLMISRTPEVTCVVVDVSHEDPEVKFNWYVDGVEVHNAKTKPREEQYNSTYRVVSVLTVLHQDWLNGKEYKCKVSNKALPAPIEKTISKAKGQPREPQVYTLPPSRDELTKNQVSLTCLVKGFYPSDIAVMWNSRFSLENNYKTTPPVLDSDGSFFLYSKLTVDKSRWQQGNIFACNVLHEALHNHYTFKNLSLSPGK | 1200 | – | –
42.8.176 (Fc fusion, bivalent; P329G+LALA) APEAAGGPSVFLFPPKPKDTLMISRTPEVTCVVVDVSHEDPEVKFNWYVDGVEVHNAKTKPREEQYNSTYRVVSVLTVLHQDWLNGKEYKCKVSNKALGAPIEKTISKAKGQPREPQVYTLPPSRDELTKNQVSLTCLVKGFYPSDIAVEWFYDDSKETNYKTTPPVLDSDGSFFLYSKLTVDKSRWQQGNLFACEVMHEALHNHYTYKLLSLSPGK | – | 613 | 9780
42.8.203 (Fc fusion, bivalent; P329G+LALA) APEAAGGPSVFLFPPKPKDTLMISRTPEVTCVVVDVSHEDPEVKFNWYVDGVEVHNAKTKPREEQYNSTYRVVSVLTVLHQDWLNGKEYKCKVSNKALGAPIEKTISKAKGQPREPQVYTLPPSRDELTKNQVSLTCLVKGFYPSDIAVEWFYEASKLTNYKTTPPVLDSDGSFFLYSKLTVDKSRWQQGNLFACEVMHEALHNHYTYKLLSLSPGK | – | 394 | 5460
42.8.206 (Fc fusion, bivalent; P329G+LALA) APEAAGGPSVFLFPPKPKDTLMISRTPEVTCVVVDVSHEDPEVKFNWYVDGVEVHNAKTKPREEQYNSTYRVVSVLTVLHQDWLNGKEYKCKVSNKALGAPIEKTISKAKGQPREPQVYTLPPSRDELTKNQVSLTCLVKGFYPSDIAVEWFYEDQKETNYKTTPPVLDSDGSFFLYSKLTVDKSRWQQGNLFACEVMHEALHNHYTYKLLSLSPGK | – | 827 | 10800
42.8.186 (Fc fusion, bivalent; P329G+LALA) APEAAGGPSVFLFPPKPKDTLMISRTPEVTCVVVDVSHEDPEVKFNWYVDGVEVHNAKTKPREEQYNSTYRVVSVLTVLHQDWLNGKEYKCKVSNKALGAPIEKTISKAKGQPREPQVYTLPPSRDELTKNQVSLTCLVKGFYPSDIAVEWFYEGQKLSNYKTTPPVLDSDGSFFLYSKLTVDKSRWQQGNLFACEVMHEALHNHYTYKLLSLSPGK | – | 2050 | 22200
42.8.191 (Fc fusion, bivalent; P329G+LALA) APEAAGGPSVFLFPPKPKDTLMISRTPEVTCVVVDVSHEDPEVKFNWYVDGVEVHNAKTKPREEQYNSTYRVVSVLTVLHQDWLNGKEYKCKVSNKALGAPIEKTISKAKGQPREPQVYTLPPSRDELTKNQVSLTCLVKGFYPSDIAVEWFYEGSKLTNYKTTPPVLDSDGSFFLYSKLTVDKSRWQQGNLFACEVMHEALHNHYTYKLLSLSPGK | – | 598 | 8140
42.8.200 (Fc fusion, bivalent; P329G+LALA) APEAAGGPSVFLFPPKPKDTLMISRTPEVTCVVVDVSHEDPEVKFNWYVDGVEVHNAKTKPREEQYNSTYRVVSVLTVLHQDWLNGKEYKCKVSNKALGAPIEKTISKAKGQPREPQVYTLPPSRDELTKNQVSLTCLVKGFYPSDIAVEWFYEASKETNYKTTPPVLDSDGSFFLYSKLTVDKSRWQQGNLFACEVMHEALHNHYTYKLLSLSPGK | – | 505 | 6210
42.8.180 (Fc fusion, bivalent; P329G+LALA) APEAAGGPSVFLFPPKPKDTLMISRTPEVTCVVVDVSHEDPEVKFNWYVDGVEVHNAKTKPREEQYNSTYRVVSVLTVLHQDWLNGKEYKCKVSNKALGAPIEKTISKAKGQPREPQVYTLPPSRDELTKNQVSLTCLVKGFYPSDIAVEWFYDDSKLSNYKTTPPVLDSDGSFFLYSKLTVDKSRWQQGNLFACEVMHEALHNHYTYKLLSLSPGK | – | 705 | 7910
42.8.209 (Fc fusion, bivalent; P329G+LALA) APEAAGGPSVFLFPPKPKDTLMISRTPEVTCVVVDVSHEDPEVKFNWYVDGVEVHNAKTKPREEQYNSTYRVVSVLTVLHQDWLNGKEYKCKVSNKALGAPIEKTISKAKGQPREPQVYTLPPSRDELTKNQVSLTCLVKGFYPSDIAVEWFYEDQKLTNYKTTPPVLDSDGSFFLYSKLTVDKSRWQQGNLFACEVMHEALHNHYTYKLLSLSPGK | – | 380 | 6030
42.8.214 (Fc fusion, bivalent; P329G+LALA) APEAAGGPSVFLFPPKPKDTLMISRTPEVTCVVVDVSHEDPEVKFNWYVDGVEVHNAKTKPREEQYNSTYRVVSVLTVLHQDWLNGKEYKCKVSNKALGAPIEKTISKAKGQPREPQVYTLPPSRDELTKNQVSLTCLVKGFYPSDIAVEWFYEDSKLNNYKTTPPVLDSDGSFFLYSKLTVDKSRWQQGNLFACEVMHEALHNHYTYKLLSLSPGK | – | 427 | 6090
42.8.211 (Fc fusion, bivalent; P329G+LALA) APEAAGGPSVFLFPPKPKDTLMISRTPEVTCVVVDVSHEDPEVKFNWYVDGVEVHNAKTKPREEQYNSTYRVVSVLTVLHQDWLNGKEYKCKVSNKALGAPIEKTISKAKGQPREPQVYTLPPSRDELTKNQVSLTCLVKGFYPSDIAVEWFYEDSKENNYKTTPPVLDSDGSFFLYSKLTVDKSRWQQGNLFACEVMHEALHNHYTYKLLSLSPGK | – | 966 | 10700
42.8.198 (Fc fusion, bivalent; P329G+LALA) APEAAGGPSVFLFPPKPKDTLMISRTPEVTCVVVDVSHEDPEVKFNWYVDGVEVHNAKTKPREEQYNSTYRVVSVLTVLHQDWLNGKEYKCKVSNKALGAPIEKTISKAKGQPREPQVYTLPPSRDELTKNQVSLTCLVKGFYPSDIAVEWFYEAQKLSNYKTTPPVLDSDGSFFLYSKLTVDKSRWQQGNLFACEVMHEALHNHYTYKLLSLSPGK | – | 841 | 12200
42.8.190 (Fc fusion, bivalent; P329G+LALA) APEAAGGPSVFLFPPKPKDTLMISRTPEVTCVVVDVSHEDPEVKFNWYVDGVEVHNAKTKPREEQYNSTYRVVSVLTVLHQDWLNGKEYKCKVSNKALGAPIEKTISKAKGQPREPQVYTLPPSRDELTKNQVSLTCLVKGFYPSDIAVEWFYEGSKLNNYKTTPPVLDSDGSFFLYSKLTVDKSRWQQGNLFACEVMHEALHNHYTYKLLSLSPGK | – | 1310 | 9780
42.8.193 (Fc fusion, bivalent; P329G+LALA) APEAAGGPSVFLFPPKPKDTLMISRTPEVTCVVVDVSHEDPEVKFNWYVDGVEVHNAKTKPREEQYNSTYRVVSVLTVLHQDWLNGKEYKCKVSNKALGAPIEKTISKAKGQPREPQVYTLPPSRDELTKNQVSLTCLVKGFYPSDIAVEWFYEAQKENNYKTTPPVLDSDGSFFLYSKLTVDKSRWQQGNLFACEVMHEALHNHYTYKLLSLSPGK | – | 1600 | 13300
42.8.215 (Fc fusion, bivalent; P329G+LALA) APEAAGGPSVFLFPPKPKDTLMISRTPEVTCVVVDVSHEDPEVKFNWYVDGVEVHNAKTKPREEQYNSTYRVVSVLTVLHQDWLNGKEYKCKVSNKALGAPIEKTISKAKGQPREPQVYTLPPSRDELTKNQVSLTCLVKGFYPSDIAVEWFYEDSKLTNYKTTPPVLDSDGSFFLYSKLTVDKSRWQQGNLFACEVMHEALHNHYTYKLLSLSPGK | – | 293 | 4940
42.8.196 (Fc fusion, bivalent; P329G+LALA) APEAAGGPSVFLFPPKPKDTLMISRTPEVTCVVVDVSHEDPEVKFNWYVDGVEVHNAKTKPREEQYNSTYRVVSVLTVLHQDWLNGKEYKCKVSNKALGAPIEKTISKAKGQPREPQVYTLPPSRDELTKNQVSLTCLVKGFYPSDIAVEWFYEAQKLNNYKTTPPVLDSDGSFFLYSKLTVDKSRWQQGNLFACEVMHEALHNHYTYKLLSLSPGK | – | 924 | 9340
42.8.205 (Fc fusion, bivalent; P329G+LALA) APEAAGGPSVFLFPPKPKDTLMISRTPEVTCVVVDVSHEDPEVKFNWYVDGVEVHNAKTKPREEQYNSTYRVVSVLTVLHQDWLNGKEYKCKVSNKALGAPIEKTISKAKGQPREPQVYTLPPSRDELTKNQVSLTCLVKGFYPSDIAVEWFYEDQKENNYKTTPPVLDSDGSFFLYSKLTVDKSRWQQGNLFACEVMHEALHNHYTYKLLSLSPGK | – | 1130 | 11400
